Laboratory results published in the supplement of paper PMC12042874.
± gives the uncertainty stated by the source.

Assay: amyloid nucleation score (Sup35N fusion, yeast selection) (log enrichment); library NNK1; higher = more nucleation; inactive = no reads after selection
Summary of the method: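 Libraries of peptides of 20 random codons fused to Sup35N were expressed in psi-negative yeast and induced 24 hours with 100 μM copper sulfate. Selection was 7 days at 30°C on medium lacking adenine and uracil, and plasmid inserts were Illumina-sequenced before and after selection. Nucleation score is the DiMSum log enrichment of output over input reads, centred on the mode score of non-aggregating sequences, and sequences with under 100 input reads were left out.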

Row | Substance | amyloid nucleation score
1 | YIHLMRYARNLLPFRYCV | -0.641 ± 0.5
2 | YIIYWGAQLSILHENSPSFG | 0.354 ± 0.33
3 | YILVNMMGVWVVKVTHKVN | inactive
4 | YILVYSSVTRRYHKSRSYVG | -0.09 ± 0.29
5 | YINVLVKAHGMMVPRRLKWV | 0.086 ± 0.32
6 | YIPICIRSYIKNAS | 0.413 ± 1.2
7 | YISNTRRLLQMIVCVMKSYG | inactive
8 | YIVAVEHLLCSVRSYGHGMG | 0.724 ± 0.83
9 | YIWFC | 6.28 ± 0.071
10 | YIWSVYLLLCWHWCRMSCSG | 1.23 ± 0.6
11 | YIYEDFGG | -0.407 ± 0.57
12 | YKDYVDLERAFKLMPGQKLW | inactive
13 | YKGVGPIVIFIQWVYITVNN | 4.1 ± 0.11
14 | YKGWYFFYVCFSKLSIGS | -0.305 ± 0.72
15 | YKLLYGYWLDWREGRNHKPK | 0.479 ± 0.32
16 | YKTEHNRSIDLLGISSSSFL | -0.322 ± 1
17 | YLAGILHTCLTLDSDVRFYT | 0.722 ± 0.54
18 | YLAQIELRLV | 0.053 ± 0.79
19 | YLASREDDINMDASLLSTHA | 1.41 ± 0.66
20 | YLDFNHM | inactive
21 | YLELLPAYRLFTGLVVLLMI | 0.736 ± 0.13
22 | YLFMMAIRGAKTLVS | inactive
23 | YLFSIVFCNV | 2.67 ± 0.29

Row | Substance | amyloid nucleation score
24 | YLIKCTTIAGRTGYSVTMRD | -0.341 ± 1
25 | YLLLGYSHYQMNVLFNTRQS | inactive
26 | YLLYDQQVSLRFVWITLSVW | 0.683 ± 0.41
27 | YLLYEVSVLNYRPL | -0.285 ± 0.32
28 | YLNILMSWI | -0.921 ± 0.66
29 | YLQLSRAVQRVLTRRWSSI | 0.31 ± 0.52
30 | YLRLFFVRCGHPDSETSYRS | 0.418 ± 0.33
31 | YLTSANTSFTFESWWCL | 2.93 ± 0.22
32 | YLVITLFPEIIIDYLSYLCP | 4.52 ± 0.079
33 | YLVTYVLSIRNCGIYIWIRR | 0.413 ± 0.49
34 | YMGELFTE | 2.45 ± 0.15
35 | YMLLTLGLTTLVCNSHRLVL | 0.026 ± 0.55
36 | YMQGAFFQQTPSNLWQEGHY | -0.74 ± 0.84
37 | YMVLS | 0.9 ± 0.85
38 | YNAASKGEINPNAGNVILFV | 3.13 ± 0.1
39 | YNCMEYSDARHKSSTVRLHY | -0.253 ± 0.62
40 | YNCWSSLNFYNPIFLRTLLG | 3.46 ± 0.21
41 | YNFCILCSSPIIVFAAPVQR | 8.034 ± 0.051
42 | YNFERDYLSVYHFAWLIP | 0.372 ± 0.54
43 | YNFRTVNFHIGTPSICFGHD | inactive
44 | YNGGGSYNWVWMGNSPVKTR | 0.969 ± 0.61
45 | YNLSGFDNGFSISLSCSDVA | 0.886 ± 0.74
46 | YNSRGDCRTLVKRGMGNFCA | 0.191 ± 0.32

Row | Substance | amyloid nucleation score
47 | YNSTAIHNYENRRDLHQLYL | 0.139 ± 0.33
48 | YNVCGELQDNIRCYISLTVL | inactive
49 | YPQMLVSVLRFMYY | 0.009 ± 0.26
50 | YPSCAGVWFKHNRLFFV | 0.096 ± 0.79
51 | YQSLVMFMEPDSRVLRVCRA | 0.104 ± 0.69
52 | YQWFMYVF | 4.61 ± 0.11
53 | YRALLYFNGIMW | inactive
54 | YRCTLASNRLRFLWITSNVR | -0.085 ± 0.58
55 | YREGHHPGWTMVKMMRTQVP | 0.26 ± 0.6
56 | YRGKRDKVVGSMMCMWRT | 0.518 ± 0.52
57 | YRGLGFVERESRDRG | -0.418 ± 0.8
58 | YRHTVIVY | 1.13 ± 0.21
59 | YRITERIFFDQKASHVWLIT | -0.165 ± 0.41
60 | YRKFHPGKRL | 0.193 ± 0.58
61 | YRLGSKISNSVKPRFDRLVE | inactive
62 | YRNGCTFGWWRWRR | 1.08 ± 0.28
63 | YRNLGGLLGIELINIMLLLW | -0.429 ± 0.93
64 | YRRVKM | -0.089 ± 0.53
65 | YRSYTRNWTLTIPGCTLRSL | -1.93 ± 2.7
66 | YRWLLNRKTSSMSVFCNSLF | inactive
67 | YRYHVSCTYAVSLGAAKSNA | -0.078 ± 0.72
68 | YSCFSECYTKMSHTLSKNNL | 2.11 ± 0.32
69 | YSDSMTIKRDSLWVIGTLEL | 1.94 ± 0.21
